Test results from publication PMC5004264, “The pesticidal Cry6Aa toxin from Bacillus thuringiensis is structurally similar to HlyE-family alpha pore-forming toxins” (BMC Biology, 2016).

T1: Cry6Aa trypsin-resistant core, polypeptide chain 12-390 (Bacillus thuringiensis, UniProt Q45757 12-390)
T1 construct: cut after Arg11 and after Arg390; Never separated from the C-terminal peptide without reduction; Cys88 is disulfide bonded to Cys451 of the peptide; also called main body of the toxin; major core
T1 sequence (looked up): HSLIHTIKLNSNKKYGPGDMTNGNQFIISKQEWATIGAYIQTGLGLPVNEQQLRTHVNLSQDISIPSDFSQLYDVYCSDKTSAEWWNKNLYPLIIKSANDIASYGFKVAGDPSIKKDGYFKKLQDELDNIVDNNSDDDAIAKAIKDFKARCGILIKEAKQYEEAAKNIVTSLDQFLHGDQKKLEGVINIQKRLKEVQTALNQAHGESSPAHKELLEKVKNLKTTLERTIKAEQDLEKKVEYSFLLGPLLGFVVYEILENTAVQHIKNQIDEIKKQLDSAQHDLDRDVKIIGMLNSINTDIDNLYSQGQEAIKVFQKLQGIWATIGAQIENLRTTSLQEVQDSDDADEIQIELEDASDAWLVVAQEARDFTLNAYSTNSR

B1: Cry6Aa C-terminal peptide CTP2 (residues 451-475) (peptide)
peptide: CPENNFMIYWYNNSDWYNNSDWYNN
notes: Minor species of the trypsin-processed toxin
B2: Cry6Aa C-terminal peptide CTP1 (residues 444-475) (peptide)
peptide: NSNLEYKCPENNFMIYWYNNSDWYNNSDWYNN
notes: Cys451 is disulfide bonded to Cys88 of chain 12-390

Legend:
[1] = molecular target: full-length, wild-type Cry6Aa1 (Bacillus thuringiensis) (UniProt Q45757); assay: SEC + other: non-denaturing and denaturing SDS-PAGE; Superdex 75 26/90, 25 mM CAPS pH 10, 50 mM NaCl, 2.5 ml/min; first peak at the void volume held dimers (only monomers on denaturing SDS-PAGE), second peak predominantly monomer
[2] = molecular target: T1, Cry6Aa trypsin-resistant core, …; assay: intact mass LC-MS; settings: both partners purified

Row | Molecule | stoichiometry N [1] | binding result [2]
1 | full-length, wild-type Cry6Aa1 (from UniProt Q45757 1-475) (natural protein) | 2 | 
2 | B1 |  | binds
3 | B2 |  | binds
